Source: patent publication US20220298218A1 (ANTAG THERAPEUTICS, published 2022)
Where no end group is shown, it is not given here. [ ]: non-standard residue; d: D form. The star is where a group is joined. C16 diacid = O=C(O)CCCCCCCCCCCCCCC(=O)*; Aib = CC(C)(N)C(=O)O

T1: human GIP receptor (human, UniProt P48546 22-466)
T1 sequence (looked up): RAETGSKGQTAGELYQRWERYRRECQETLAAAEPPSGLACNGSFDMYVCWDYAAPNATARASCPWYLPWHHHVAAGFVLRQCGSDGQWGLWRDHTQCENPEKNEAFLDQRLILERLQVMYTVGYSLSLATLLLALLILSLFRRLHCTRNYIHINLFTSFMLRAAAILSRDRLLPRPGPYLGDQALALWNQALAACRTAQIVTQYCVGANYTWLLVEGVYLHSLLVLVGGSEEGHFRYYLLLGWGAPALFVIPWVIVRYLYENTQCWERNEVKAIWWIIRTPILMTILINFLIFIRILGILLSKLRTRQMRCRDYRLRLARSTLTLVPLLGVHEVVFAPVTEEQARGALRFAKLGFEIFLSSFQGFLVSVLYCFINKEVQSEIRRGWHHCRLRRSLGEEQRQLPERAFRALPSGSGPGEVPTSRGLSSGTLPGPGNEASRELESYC


Biological target: T1, human GIP receptor
Test: cell-based or functional assay

| Binder | cAMP agonism % Emax [%] | cAMP antagonism [nM] | cAMP antagonism % inhib [%] | cAMP antagonism pIC50 |
| --- | --- | --- | --- | --- |
| Ac-EGTFISEYSIAMEKIK(C16 diacid)QQDFVNWLLAQKPSSGAPPPS-OH (SMILES CC[C@H](C)[C@H](NC(=O)[C@H](CO)NC(=O)[C@H](Cc1ccc(O)cc1)NC(=O)[C@H](CCC(=O)O)NC(=O)[C@H](CO)NC(=O)[C@@H](NC(=O)[C@H](Cc1ccccc1)NC(=O)[C@@H](NC(=O)CNC(=O)[C@H](CCC(=O)O)NC(C)=O)[C@@H](C)O)[C@@H](C)CC)C(=O)N[C@@H](C)C(=O)N[C@@H](CCSC)C(=O)N[C@@H](CCC(=O)O)C(=O)N[C@@H](CCCCN)C(=O)N[C@H](C(=O)N[C@@H](CCCCNC(=O)CCCCCCCCCCCCCCC(=O)O)C(=O)N[C@@H](CCC(N)=O)C(=O)N[C@@H](CCC(N)=O)C(=O)N[C@@H](CC(=O)O)C(=O)N[C@@H](Cc1ccccc1)C(=O)N[C@H](C(=O)N[C@@H](CC(N)=O)C(=O)N[C@@H](Cc1c[nH]c2ccccc12)C(=O)N[C@@H](CC(C)C)C(=O)N[C@@H](CC(C)C)C(=O)N[C@@H](C)C(=O)N[C@@H](CCC(N)=O)C(=O)N[C@@H](CCCCN)C(=O)N1CCC[C@H]1C(=O)N[C@@H](CO)C(=O)N[C@@H](CO)C(=O)NCC(=O)N[C@@H](C)C(=O)N1CCC[C@H]1C(=O)N1CCC[C@H]1C(=O)N1CCC[C@H]1C(=O)N[C@@H](CO)C(=O)O)C(C)C)[C@@H](C)CC) [AT635] | 5 | 1.12 | 87 | 9 |
| PGTFISDYSIAMDKIK(C16 diacid)QQDFVNWLLAQKPSSGAPPPS-OH (N-terminus assumed; SMILES CC[C@H](C)[C@H](NC(=O)[C@H](CO)NC(=O)[C@H](Cc1ccc(O)cc1)NC(=O)[C@H](CC(=O)O)NC(=O)[C@H](CO)NC(=O)[C@@H](NC(=O)[C@H](Cc1ccccc1)NC(=O)[C@@H](NC(=O)CNC(=O)[C@@H]1CCCN1)[C@@H](C)O)[C@@H](C)CC)C(=O)N[C@@H](C)C(=O)N[C@@H](CCSC)C(=O)N[C@@H](CC(=O)O)C(=O)N[C@@H](CCCCN)C(=O)N[C@H](C(=O)N[C@@H](CCCCNC(=O)CCCCCCCCCCCCCCC(=O)O)C(=O)N[C@@H](CCC(N)=O)C(=O)N[C@@H](CCC(N)=O)C(=O)N[C@@H](CC(=O)O)C(=O)N[C@@H](Cc1ccccc1)C(=O)N[C@H](C(=O)N[C@@H](CC(N)=O)C(=O)N[C@@H](Cc1c[nH]c2ccccc12)C(=O)N[C@@H](CC(C)C)C(=O)N[C@@H](CC(C)C)C(=O)N[C@@H](C)C(=O)N[C@@H](CCC(N)=O)C(=O)N[C@@H](CCCCN)C(=O)N1CCC[C@H]1C(=O)N[C@@H](CO)C(=O)N[C@@H](CO)C(=O)NCC(=O)N[C@@H](C)C(=O)N1CCC[C@H]1C(=O)N1CCC[C@H]1C(=O)N1CCC[C@H]1C(=O)N[C@@H](CO)C(=O)O)C(C)C)[C@@H](C)CC) [AT638] | 0 | 14.7 | 85 | 7.8 |
| [Aib]ETFISDYSIAMDKIK(C16 diacid)QQDFVNWLLAQKPSSGAPPPS-OH (N-terminus assumed; SMILES CC[C@H](C)[C@H](NC(=O)[C@H](CO)NC(=O)[C@H](Cc1ccc(O)cc1)NC(=O)[C@H](CC(=O)O)NC(=O)[C@H](CO)NC(=O)[C@@H](NC(=O)[C@H](Cc1ccccc1)NC(=O)[C@@H](NC(=O)[C@H](CCC(=O)O)NC(=O)C(C)(C)N)[C@@H](C)O)[C@@H](C)CC)C(=O)N[C@@H](C)C(=O)N[C@@H](CCSC)C(=O)N[C@@H](CC(=O)O)C(=O)N[C@@H](CCCCN)C(=O)N[C@H](C(=O)N[C@@H](CCCCNC(=O)CCCCCCCCCCCCCCC(=O)O)C(=O)N[C@@H](CCC(N)=O)C(=O)N[C@@H](CCC(N)=O)C(=O)N[C@@H](CC(=O)O)C(=O)N[C@@H](Cc1ccccc1)C(=O)N[C@H](C(=O)N[C@@H](CC(N)=O)C(=O)N[C@@H](Cc1c[nH]c2ccccc12)C(=O)N[C@@H](CC(C)C)C(=O)N[C@@H](CC(C)C)C(=O)N[C@@H](C)C(=O)N[C@@H](CCC(N)=O)C(=O)N[C@@H](CCCCN)C(=O)N1CCC[C@H]1C(=O)N[C@@H](CO)C(=O)N[C@@H](CO)C(=O)NCC(=O)N[C@@H](C)C(=O)N1CCC[C@H]1C(=O)N1CCC[C@H]1C(=O)N1CCC[C@H]1C(=O)N[C@@H](CO)C(=O)O)C(C)C)[C@@H](C)CC) [AT640] | 0 | 7.08 | 90 | 8.2 |
| [Aib]GTFISDYSIAMDKIK(C16 diacid)QQDFVNWLLAQKPSSGAPPPS-OH (N-terminus assumed; SMILES CC[C@H](C)[C@H](NC(=O)[C@H](CO)NC(=O)[C@H](Cc1ccc(O)cc1)NC(=O)[C@H](CC(=O)O)NC(=O)[C@H](CO)NC(=O)[C@@H](NC(=O)[C@H](Cc1ccccc1)NC(=O)[C@@H](NC(=O)CNC(=O)C(C)(C)N)[C@@H](C)O)[C@@H](C)CC)C(=O)N[C@@H](C)C(=O)N[C@@H](CCSC)C(=O)N[C@@H](CC(=O)O)C(=O)N[C@@H](CCCCN)C(=O)N[C@H](C(=O)N[C@@H](CCCCNC(=O)CCCCCCCCCCCCCCC(=O)O)C(=O)N[C@@H](CCC(N)=O)C(=O)N[C@@H](CCC(N)=O)C(=O)N[C@@H](CC(=O)O)C(=O)N[C@@H](Cc1ccccc1)C(=O)N[C@H](C(=O)N[C@@H](CC(N)=O)C(=O)N[C@@H](Cc1c[nH]c2ccccc12)C(=O)N[C@@H](CC(C)C)C(=O)N[C@@H](CC(C)C)C(=O)N[C@@H](C)C(=O)N[C@@H](CCC(N)=O)C(=O)N[C@@H](CCCCN)C(=O)N1CCC[C@H]1C(=O)N[C@@H](CO)C(=O)N[C@@H](CO)C(=O)NCC(=O)N[C@@H](C)C(=O)N1CCC[C@H]1C(=O)N1CCC[C@H]1C(=O)N1CCC[C@H]1C(=O)N[C@@H](CO)C(=O)O)C(C)C)[C@@H](C)CC) [AT637] | 0 | 2.23 | 89 | 8.7 |
| VETFISDYSIAMDKIK(C16 diacid)QQDFVNWLLAQKPSSGAPPPS-OH (N-terminus assumed; SMILES CC[C@H](C)[C@H](NC(=O)[C@H](CO)NC(=O)[C@H](Cc1ccc(O)cc1)NC(=O)[C@H](CC(=O)O)NC(=O)[C@H](CO)NC(=O)[C@@H](NC(=O)[C@H](Cc1ccccc1)NC(=O)[C@@H](NC(=O)[C@H](CCC(=O)O)NC(=O)[C@@H](N)C(C)C)[C@@H](C)O)[C@@H](C)CC)C(=O)N[C@@H](C)C(=O)N[C@@H](CCSC)C(=O)N[C@@H](CC(=O)O)C(=O)N[C@@H](CCCCN)C(=O)N[C@H](C(=O)N[C@@H](CCCCNC(=O)CCCCCCCCCCCCCCC(=O)O)C(=O)N[C@@H](CCC(N)=O)C(=O)N[C@@H](CCC(N)=O)C(=O)N[C@@H](CC(=O)O)C(=O)N[C@@H](Cc1ccccc1)C(=O)N[C@H](C(=O)N[C@@H](CC(N)=O)C(=O)N[C@@H](Cc1c[nH]c2ccccc12)C(=O)N[C@@H](CC(C)C)C(=O)N[C@@H](CC(C)C)C(=O)N[C@@H](C)C(=O)N[C@@H](CCC(N)=O)C(=O)N[C@@H](CCCCN)C(=O)N1CCC[C@H]1C(=O)N[C@@H](CO)C(=O)N[C@@H](CO)C(=O)NCC(=O)N[C@@H](C)C(=O)N1CCC[C@H]1C(=O)N1CCC[C@H]1C(=O)N1CCC[C@H]1C(=O)N[C@@H](CO)C(=O)O)C(C)C)[C@@H](C)CC) [AT639] | 0 | 66.8 | 100 | 7.2 |
| VGTFISDYSIAMDKIK(C16 diacid)QQDFVNWLLAQKPSSGAPPPS-OH (N-terminus assumed; SMILES CC[C@H](C)[C@H](NC(=O)[C@H](CO)NC(=O)[C@H](Cc1ccc(O)cc1)NC(=O)[C@H](CC(=O)O)NC(=O)[C@H](CO)NC(=O)[C@@H](NC(=O)[C@H](Cc1ccccc1)NC(=O)[C@@H](NC(=O)CNC(=O)[C@@H](N)C(C)C)[C@@H](C)O)[C@@H](C)CC)C(=O)N[C@@H](C)C(=O)N[C@@H](CCSC)C(=O)N[C@@H](CC(=O)O)C(=O)N[C@@H](CCCCN)C(=O)N[C@H](C(=O)N[C@@H](CCCCNC(=O)CCCCCCCCCCCCCCC(=O)O)C(=O)N[C@@H](CCC(N)=O)C(=O)N[C@@H](CCC(N)=O)C(=O)N[C@@H](CC(=O)O)C(=O)N[C@@H](Cc1ccccc1)C(=O)N[C@H](C(=O)N[C@@H](CC(N)=O)C(=O)N[C@@H](Cc1c[nH]c2ccccc12)C(=O)N[C@@H](CC(C)C)C(=O)N[C@@H](CC(C)C)C(=O)N[C@@H](C)C(=O)N[C@@H](CCC(N)=O)C(=O)N[C@@H](CCCCN)C(=O)N1CCC[C@H]1C(=O)N[C@@H](CO)C(=O)N[C@@H](CO)C(=O)NCC(=O)N[C@@H](C)C(=O)N1CCC[C@H]1C(=O)N1CCC[C@H]1C(=O)N1CCC[C@H]1C(=O)N[C@@H](CO)C(=O)O)C(C)C)[C@@H](C)CC) [AT636] | 0 | 1.71 | 87 | 8.8 |
